Common to all, as to assay: purified protein
Common to all, as to assay type: biochemical, Plenodomus lingam
What all share (conditions): 1 mM [1-14C]DMAPP, 100 mM Tris-HCl pH 8.0, 2% glycerol, 30 °C

Data set [1] relates to COc1cccc2[nH]cc(C[C@H](N)C(=O)O)c12.
The test system of data set [2] is N[C@@H](Cc1c[nH]c2ccccc12)C(=O)O.
In data set [3] the test system is Cc1cccc2c(C[C@H](N)C(=O)O)c[nH]c12.

By Km is commonly meant the concentration of substrate that gives half-maximal velocity. A word on the kcat/Km: it is the second-order rate constant that governs catalysis at low substrate concentration. In general, kcat refers to the number of substrate molecules converted per active site and unit of time at saturation. For the substance “SirD (tyrosine O-prenyltransferase; dimethylallyltyrosine synthase) (Plenodomus lingam)”, the Km in data set [1] is reported as 5.1 ± 2.0 mM; in data set [2], 0.37 ± 0.06 mM; in data set [3], 2.0 ± 0.4 mM. The kcat/Km in data set [1] stood at 2.5 M⁻¹ s⁻¹; in data set [2] it was 260 M⁻¹ s⁻¹; in data set [3] it was 6.5 M⁻¹ s⁻¹. In addition, in data set [2], the kcat turned out to be 0.095 ± 0.002 s⁻¹.

Values taken from PMC3870192.
